{"source": "patent EP2261242A1", "about": "“Aspartate-N-acetyltransferase enzyme, diagnostic method and therapeutic method” (UNIVERSITE CATHOLIQUE DE LOUVAIN, priority 2009, dated 2010)", "molecules": {"B1": {"name": "mouse NAT8L (Mus musculus) (protein)", "chain": "MHCGPPDMVCETKIVATEDHEALPGAKKDALLVAAGAMWPPLPAAPGPAAAPPPAAGPQPHGGTGGAGPPEGRGVCIREFRAAEQEAARRIFYDGILERIPNTAFRGLRQHPRTQLLYALLAALCFAVTRSLLLTCLVPAGLLALRYYYSRKVILAYLECALHTDMADIEQYYMKPPGSCFWVAVLDGNVVGIVAARAHEEDNTVELLRMSVDSRFRGKSIAKALGRRVLEFAMLHNYSAVVLGTTAVKVAAHKLYESLGFRHMGASDHYVLPGMTLSLAERLFFQVRYHRYRLQLREE"}}, "key": {"mouse NAT8L": {"target": "T1, mouse NAT8L (Mus musculus, UniProt Q3UGX3)", "T1 construct": "expressed in transfected cells; host or cells: HEK 293T cells (pCMV5 vector); washed 16 000 x g membrane pellets of frozen-thawed extracts", "T1 sequence (Q3UGX3 1-299)": "B1 chain", "experiment": "Radiochemical Asp-NAT activity assay on washed membrane pellets of HEK cells transfected with untagged mouse NAT8L", "format": "biochemical", "method": "After 20-40 min at 30°C, the reaction was arrested by a 5-min incubation at 80°C and 1 ml of 5 mM Hepes, pH 7.1 was added. The sample was centrifuged and the supernatant was applied on a 1-ml Dowex AG1X8 column (Cl^- form, 100-200 mesh, from Acros Organics) prepared in a Pasteur capillary pipette. […] Radioactivity was counted in the presence of Ultima Gold™ (Perkin Elmer) in a liquid scintillation counter. The kinetic studies shown in Figure 3 were performed using washed pellets, obtained by centrifuging extracts for 20 min at 16 000 x g, resuspending them in the initial volume of extraction buffer, recentrifugation and resuspension in the original volume of extraction buffer.\nThe Asp-NAT activity was further characterized in extracts of cells expressing wild-type mouse NAT8L. […] The kinetic studies were therefore performed on washed pellets, to eliminate soluble, potentially interfering enzymes. […] The KM values amounted to ≈ 9 and 13 µM in the presence of 0.5 and 1 mM CHAPS, respectively."}, "[1]": {"substrate": "N[C@@H](CC(=O)O)C(=O)O", "experiment": "purified protein, by the assay type", "conditions": "other: substrate saturation curve; same in absence and presence of 0.5 mM CHAPS; pH 7.1"}, "[2]": {"substrate": "CC(=O)SCCNC(=O)CCNC(=O)[C@H](O)C(C)(C)COP(=O)(O)OP(=O)(O)OC[C@H]1O[C@@H](n2cnc3c(N)ncnc32)[C@H](O)[C@@H]1OP(=O)(O)O", "experiment": "purified protein, by the assay type", "conditions": "other: 20 µM aspartate, pH 7.1"}, "[3]": {"substrate": "NC(CCC(=O)O)C(=O)O", "experiment": "purified protein, by the assay type", "conditions": "other: glutamate as substrate (not shown); pH 7.1"}}, "note": "Where two headings read alike, the source gives them in different places."}
{"molecule": "N[C@@H](CCC(=O)O)C(=O)O", "note": "[glutamate]", "values": [{"measurement": "Ki", "setting": "mouse NAT8L", "result": "~6", "unit": "mM"}]}
{"molecule": "C[C@H](CCC(=O)NCCC[N+](C)(C)CCCS(=O)(=O)[O-])[C@H]1CC[C@H]2[C@@H]3[C@H](O)C[C@@H]4C[C@H](O)CC[C@]4(C)[C@H]3C[C@H](O)[C@]12C", "note": "[CHAPS]", "values": [{"measurement": "increase of Vmax", "setting": "mouse NAT8L; 0.5 mM CHAPS, saturation curve for aspartate", "result": "≈ 30%"}]}
{"molecule": "CC(=O)N[C@@H](CC(=O)O)C(=O)O", "note": "[NAA, N-acetylaspartate]", "values": [{"measurement": "Ki", "setting": "mouse NAT8L; inhibition of incorporation of [^14C]-aspartate into NAA, competitive with respect to aspartate, 200 µM acetyl-CoA, 0.5 mM CHAPS, variable aspartate", "result": 0.56, "unit": "mM"}]}
{"molecule": "B1", "values": [{"measurement": "Km", "setting": "[1]", "result": 90, "unit": "µM"}, {"measurement": "Km", "setting": "[2]; in the presence of 0.5 mM CHAPS", "result": 9, "unit": "µM"}, {"measurement": "Km", "setting": "[2]; in the presence of 1 mM CHAPS", "result": 13, "unit": "µM"}, {"measurement": "Km", "setting": "[3]", "result": 5, "unit": "mM"}]}
